Consider seven molecules from US20180155451A1 (published 2018).

The target of one assay is T1, FcgRIIIa F (human, UniProt P08637 17-208).
T1 construct: extracellular domain; also called FcγRIIIa F; 3aF; not shown: His tag attached to the C terminus
As to the kind of experiment: SPR (Biacore); KD of H240-Kn061/H240-Hl071/L73-k0 divided by KD of the variant. On the procedure:
(§1) The antibodies were assessed for the binding to each FcgR. […] The resultant value was defined as relative KD, and used as an assessment indicator.
(§2) Analysis of interaction between obj ective antibody and the FcγR was carried out using Biacore T100 (GE Healthcare), Biacore T200, Biacore A100, and Biacore 4000. HBS-EP+ (GE Healthcare) was used as the running buffer, and the measurement temperature was set to 25° C. Chips produced by immobilizing the antigen peptide by the amine coupling method to a Series S sensor Chip CM5 (GE Healthcare), chips produced by allowing preliminarily biotinylated antigen peptides to interact with and immobilize onto a Series S Sensor Chip SA (certified) (GE Healthcare), chips produced by immobilizing Protein L (ACTIGEN, BioVision) to Series S Sencor Chip CM5 (GE Healthcare), or chips produced by immobilizing Protein A/G (Thermo Scientific) to Series S Sencor Chip CM5 (GE Healthcare) were used. Antibodies of interest were captured onto these chips, and allowed to interact to each FcγR diluted with running buffer.

Another assay has as its target T2, FcgRIIa R (human, UniProt P12318 34-217).
T2 construct: extracellular domain; also called FcγRIIa R; FcγRIIa type R; not shown: His tag attached to the C terminus
T2 sequence (looked up): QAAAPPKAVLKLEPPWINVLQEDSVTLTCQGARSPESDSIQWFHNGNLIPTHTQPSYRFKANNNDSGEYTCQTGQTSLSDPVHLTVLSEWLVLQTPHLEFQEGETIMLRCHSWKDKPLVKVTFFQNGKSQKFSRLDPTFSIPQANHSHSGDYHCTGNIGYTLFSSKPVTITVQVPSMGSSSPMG
Described as above. On the procedure: as §1, §2

A further assay concerns the target T3, FcgRIIb (human, UniProt P31994 43-217).
T3 construct: extracellular domain; also called FcγRIIb; not shown: His tag attached to the C terminus
T3 sequence (looked up): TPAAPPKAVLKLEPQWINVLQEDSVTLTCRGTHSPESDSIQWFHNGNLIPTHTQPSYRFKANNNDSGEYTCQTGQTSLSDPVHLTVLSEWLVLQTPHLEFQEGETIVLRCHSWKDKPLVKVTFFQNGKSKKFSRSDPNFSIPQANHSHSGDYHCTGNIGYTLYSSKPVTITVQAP
The assay is described as above. The protocol: as §1, §2

A further assay concerns the target T4, FcgRIIIa V (human, UniProt P08637 17-208).
T4 construct: extracellular domain; also called FcγRIIIa V; not shown: His tag attached to the C terminus
Described as above. On the procedure:
as §1, §2

Another assay has as its target T5, FcgRIIa H (human, UniProt P12318 34-217).
T5 construct: extracellular domain; also called FcγRIIa H; FcγRIIa type H; not shown: His tag attached to the C terminus
T5 sequence (looked up): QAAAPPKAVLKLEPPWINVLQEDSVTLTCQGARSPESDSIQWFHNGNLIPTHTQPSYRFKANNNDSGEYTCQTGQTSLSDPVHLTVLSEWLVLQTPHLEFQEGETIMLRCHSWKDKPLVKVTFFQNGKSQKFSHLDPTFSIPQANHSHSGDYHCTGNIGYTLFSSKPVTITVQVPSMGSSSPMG
The assay is described as above. The protocol: as §1, §2

In assay [1] the target is T6, FcγRIIIa extracellular domain with C-terminal His tag (human, UniProt P08637 17-208).
T6 construct: extracellular domain; also called FcgRIIIa; 3a; not shown: His tag at the C terminus
In words: SPR; He/Con_3a divided by He/Con_2b (binding to FcγRIIb is the reference). The protocol:
(§3) Analysis of interaction between objective antibody and the FcγR was carried out using Biacore T100 (GE Healthcare). HBS-EP+ (GE Healthcare) was used as the running buffer, and the measurement temperature was set to 25° C. Chips produced by immobilizing the antigen peptide by the amine coupling method to a Series S Sencor Chip CM5 (GE Healthcare), or alternatively, chips produced by allowing preliminarily biotinylated antigen peptides to interact with and immobilize onto a Series S Sensor Chip SA (certified) (GE Healthcare) were used. Antibodies of interest were captured onto an antigen peptide-immobilized chip, and allowed to interact to each FcγR diluted with running buffer. To regenerate and repeatedly use the chip, the antibodies captured on the chip were washed off by reacting 10 mM glycine-HCl, pH 1.5.
(§4) The FcγR-binding activity of each antibody was assessed primarily using as an indicator the FcγR-binding activity and dissociation constant for FcγR.

In assay [2] the target is T6, FcγRIIIa extracellular domain with …. In words: SPR (Biacore), antibody captured on antigen peptide chip, FcγR as analyte; relative binding amount. The protocol: as §3, §4
Assay [3] concerns the target T7, FcγRIIb extracellular domain with C-terminal His tag (human, UniProt P31994 43-217).
T7 construct: extracellular domain; also called FcgRIIb; 2b; not shown: His tag at the C terminus
T7 sequence (looked up): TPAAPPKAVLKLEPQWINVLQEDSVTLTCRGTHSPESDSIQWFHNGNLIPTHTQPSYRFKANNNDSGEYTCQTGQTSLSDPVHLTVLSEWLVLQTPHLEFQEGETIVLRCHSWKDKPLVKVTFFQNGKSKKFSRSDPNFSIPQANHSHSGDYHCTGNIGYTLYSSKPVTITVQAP
Described as above. The protocol:
as §3, §4

T6 sequence (P08637 17-208): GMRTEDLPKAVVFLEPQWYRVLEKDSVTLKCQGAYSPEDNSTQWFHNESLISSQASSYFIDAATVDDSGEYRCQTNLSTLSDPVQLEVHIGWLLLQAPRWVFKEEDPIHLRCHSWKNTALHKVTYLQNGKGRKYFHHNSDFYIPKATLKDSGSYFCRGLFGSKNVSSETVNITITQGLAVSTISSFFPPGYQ
T1 sequence (P08637 17-208): as above
T4 sequence (P08637 17-208 F176V limits assumed): as the sequence (P08637 17-208) above, with F160V counted along it

B1: H240-Kn061 (A231E)/H240-Hl071/L73-k0 (antibody, human IgG1, kappa)
heavy 1: QDQLVQSGAEVKKPGASVKVSCKASGFNIKDTYIQWVRQAPGQGLEWMGRIDPLRKQTKYREKFEGRVTITADTSTNTAYMELSSLRSEDTAVYYCVRSGREFDYWGQGTLVTVSSASTKGPSVFPLAPSSKSTSGGTAALGCLVKDYFPEPVTVSWNSGALTSGVHTFPAVLQSSGLYSLSSVVTVPSSSLGTQTYICNVNHKPSNTKVDKKVEPKSCDKTHTCPPCPEPEYYWGPSVFLFPPKPKDTLMISRTPEVTCVVVDVSDEDPEVKFNWYVDGVEVHNAKTKPREEQYNATYRVVSVLTVLHQDWLNGKEYKCKVSNKALPAPIEKTISKAKGQPREPQVCTLPPSRDELTKNQVSLWCLVKGFYPSDIAVEWESNGQPENNYKTTPPVLDSDGSFFLYSKLTVDKSRWQQGNVFSCSVMHEALHNHYTQKSLSLSP
heavy 2: QDQLVQSGAEVKKPGASVKVSCKASGFNIKDTYIQWVRQAPGQGLEWMGRIDPLRKQTKYREKFEGRVTITADTSTNTAYMELSSLRSEDTAVYYCVRSGREFDYWGQGTLVTVSSASTKGPSVFPLAPSSKSTSGGTAALGCLVKDYFPEPVTVSWNSGALTSGVHTFPAVLQSSGLYSLSSVVTVPSSSLGTQTYICNVNHKPSNTKVDKKVEPKSCDKTHTCPPCPAPELLGGPSVFLFPPKPKDTLMISRTPEVTCVVVDVSHEDPEVKFNWYVDGVEVHNAKTKPREEQYNSTYRVVSVLTVLHQDWLNGKEYKCKVSNDALPMPIEETISKAKGQPREPQVYTLPPSRCELTKNQVSLSCAVKGFYPSDIAVEWESNGQPENNYKTTPPVLDSDGSFFLVSKLTVDKSRWQQGNVFSCSVMHEALHNHYTQKSLSLSP
light: DIQMTQSPSSLSASVGDRVTITCRASQDIHKYIAWYQQKPGQAPRLLIQYTSTLQPGVPSRFSGSGSGTDYTFTISSLQPEDIATYYCLQYEQLRTFGGGTKVEIKRTVAAPSVFIFPPSDEQLKSGTASVVCLLNNFYPREAKVQWKVDNALQSGNSQESVTEQDSKDSTYSLSSTLTLSKADYEKHKVYACEVTHQGLSSPVTKSFNRGEC
For B1, the “Relative KD” value with FcgRIIIa F came to 1.8; with FcgRIIa R it was 1.7; in the assay with FcgRIIb, 1.4; with FcgRIIIa V, 2; with FcgRIIa H it was 1.6.

B2: GpH7-A5/GpH7-B3 variant S239_08L/GpL16-k0 (antibody, human IgG1, kappa)
heavy 1: not shown
heavy 2: not shown
light: DIVMTQSPLSLPVTPGEPASISCQASESLVHSNRNTYLHWYLQKPGQSPQLLIYKVSNRFSGVPDRFSGSGSGTDFTLKISRVEAEDVGVYYCSQNTHVPPTFGQGTKVEIERTVAAPSVFIFPPSDEQLKSGTASVVCLLNNFYPREAKVQWKVDNALQSGNSQESVTEQDSKDSTYSLSSTLTLSKADYEKHKVYACEVTHQGLSSPVTKSFNRGEC
notes: Heterodimerized anti-glypican-3 IgG1; the substitution stands in the GpH7-B3 chain only; also called He Ab
For B2, in assay [1], the “He_3a/2b (IIIa/IIb)” value was 0.68 ratio. Moreover, the He/Con_3a in assay [2] is 95.3 % of GpH7-A5/GpH7-B3/GpL16-k0 (=100). Also, in assay [3], the He/Con_2b was 140 % of GpH7-A5/GpH7-B3/GpL16-k0 (=100).

B3: GpH7-A5/GpH7-B3 variant S239_16H/GpL16-k0 (antibody, human IgG1, kappa)
heavy 1: not shown
heavy 2: not shown
light: DIVMTQSPLSLPVTPGEPASISCQASESLVHSNRNTYLHWYLQKPGQSPQLLIYKVSNRFSGVPDRFSGSGSGTDFTLKISRVEAEDVGVYYCSQNTHVPPTFGQGTKVEIERTVAAPSVFIFPPSDEQLKSGTASVVCLLNNFYPREAKVQWKVDNALQSGNSQESVTEQDSKDSTYSLSSTLTLSKADYEKHKVYACEVTHQGLSSPVTKSFNRGEC
notes: as for B2
With B3, the “He_3a/2b (IIIa/IIb)” value in assay [1] is 0.59 ratio. Further, the He/Con_3a in assay [2] was 29.2 % of GpH7-A5/GpH7-B3/GpL16-k0 (=100). Moreover, in assay [3], the He/Con_2b is 49.4 % of GpH7-A5/GpH7-B3/GpL16-k0 (=100).

B4: GpH7-A5/GpH7-B3 variant S239_19Q/GpL16-k0 (antibody, human IgG1, kappa)
heavy 1: not shown
heavy 2: not shown
light: DIVMTQSPLSLPVTPGEPASISCQASESLVHSNRNTYLHWYLQKPGQSPQLLIYKVSNRFSGVPDRFSGSGSGTDFTLKISRVEAEDVGVYYCSQNTHVPPTFGQGTKVEIERTVAAPSVFIFPPSDEQLKSGTASVVCLLNNFYPREAKVQWKVDNALQSGNSQESVTEQDSKDSTYSLSSTLTLSKADYEKHKVYACEVTHQGLSSPVTKSFNRGEC
notes: as for B2
On to B4, for which the “He_3a/2b (IIIa/IIb)” value in assay [1] was 0.66 ratio. The He/Con_3a in assay [2] was 56.9 % of GpH7-A5/GpH7-B3/GpL16-k0 (=100). In addition, the He/Con_2b in assay [3] is 86.1 % of GpH7-A5/GpH7-B3/GpL16-k0 (=100).

B5: GpH7-A5/GpH7-B3 variant S239_15Y/GpL16-k0 (antibody, human IgG1, kappa)
heavy 1: not shown
heavy 2: not shown
light: DIVMTQSPLSLPVTPGEPASISCQASESLVHSNRNTYLHWYLQKPGQSPQLLIYKVSNRFSGVPDRFSGSGSGTDFTLKISRVEAEDVGVYYCSQNTHVPPTFGQGTKVEIERTVAAPSVFIFPPSDEQLKSGTASVVCLLNNFYPREAKVQWKVDNALQSGNSQESVTEQDSKDSTYSLSSTLTLSKADYEKHKVYACEVTHQGLSSPVTKSFNRGEC
notes: as for B2
As to B5, the “He_3a/2b (IIIa/IIb)” value in assay [1] is 0.73 ratio. Besides, the He/Con_3a in assay [2] was 25.6 % of GpH7-A5/GpH7-B3/GpL16-k0 (=100). In assay [3], the He/Con_2b is 34.9 % of GpH7-A5/GpH7-B3/GpL16-k0 (=100).

B6: GpH7-A5/GpH7-B3 variant S239_11K/GpL16-k0 (antibody, human IgG1, kappa)
heavy 1: not shown
heavy 2: not shown
light: DIVMTQSPLSLPVTPGEPASISCQASESLVHSNRNTYLHWYLQKPGQSPQLLIYKVSNRFSGVPDRFSGSGSGTDFTLKISRVEAEDVGVYYCSQNTHVPPTFGQGTKVEIERTVAAPSVFIFPPSDEQLKSGTASVVCLLNNFYPREAKVQWKVDNALQSGNSQESVTEQDSKDSTYSLSSTLTLSKADYEKHKVYACEVTHQGLSSPVTKSFNRGEC
notes: as for B2
Regarding B6, in assay [1], the “He_3a/2b (IIIa/IIb)” value amounted to 0.48 ratio. Further, the He/Con_3a in assay [2] was 11.9 % of GpH7-A5/GpH7-B3/GpL16-k0 (=100). Also, the He/Con_2b in assay [3] was 24.7 % of GpH7-A5/GpH7-B3/GpL16-k0 (=100).

B7: GpH7-A5/GpH7-B3 variant S239_12R/GpL16-k0 (antibody, human IgG1, kappa)
heavy 1: not shown
heavy 2: not shown
light: DIVMTQSPLSLPVTPGEPASISCQASESLVHSNRNTYLHWYLQKPGQSPQLLIYKVSNRFSGVPDRFSGSGSGTDFTLKISRVEAEDVGVYYCSQNTHVPPTFGQGTKVEIERTVAAPSVFIFPPSDEQLKSGTASVVCLLNNFYPREAKVQWKVDNALQSGNSQESVTEQDSKDSTYSLSSTLTLSKADYEKHKVYACEVTHQGLSSPVTKSFNRGEC
notes: as for B2
Take B7: the “He_3a/2b (IIIa/IIb)” value in assay [1] came to 0.44 ratio. In addition, the He/Con_3a in assay [2] was 17 % of GpH7-A5/GpH7-B3/GpL16-k0 (=100). In addition, the He/Con_2b in assay [3] is 39.1 % of GpH7-A5/GpH7-B3/GpL16-k0 (=100).
